US7569748 (WISCONSIN ALUMNI RESEARCH FOUNDATION, dated 2009)

Columns and labels:
[1] = system: TcbA (native, from W-14 broth)
[2] = molecular target: T1, TcdAiii (Photorhabdus luminescens strain W-14); experiment: native PAGE (one major band), gel filtration 860 kDa, 1 to 1 molar ratio by densitometry
T1 construct: Processed peptide of TcdA; also called A2
T1 chain: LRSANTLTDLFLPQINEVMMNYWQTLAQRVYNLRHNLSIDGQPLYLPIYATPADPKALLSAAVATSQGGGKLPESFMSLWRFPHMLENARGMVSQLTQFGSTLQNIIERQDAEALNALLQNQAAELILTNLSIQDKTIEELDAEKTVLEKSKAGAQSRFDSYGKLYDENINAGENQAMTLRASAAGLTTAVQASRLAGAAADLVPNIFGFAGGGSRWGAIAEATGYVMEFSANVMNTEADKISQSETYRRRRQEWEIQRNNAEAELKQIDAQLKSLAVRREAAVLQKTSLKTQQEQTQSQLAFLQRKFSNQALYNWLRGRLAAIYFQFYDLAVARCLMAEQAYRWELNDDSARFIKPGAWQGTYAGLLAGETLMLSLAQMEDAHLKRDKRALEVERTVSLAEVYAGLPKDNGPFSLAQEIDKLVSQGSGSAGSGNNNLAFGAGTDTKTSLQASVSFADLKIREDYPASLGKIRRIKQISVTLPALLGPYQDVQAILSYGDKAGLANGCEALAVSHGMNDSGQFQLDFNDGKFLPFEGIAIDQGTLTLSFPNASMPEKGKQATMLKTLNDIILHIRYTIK

[3] = molecular target: T2, TcbAiii (Photorhabdus luminescens strain W-14); experiment: native PAGE (one major band), gel filtration 860 kDa, same molar concentration
T2 construct: Processed peptide of TcbA; also detected in E. coli preparations expressing tcbA constructs; also called B2; 58 kDa peptide of toxin B
T2 chain: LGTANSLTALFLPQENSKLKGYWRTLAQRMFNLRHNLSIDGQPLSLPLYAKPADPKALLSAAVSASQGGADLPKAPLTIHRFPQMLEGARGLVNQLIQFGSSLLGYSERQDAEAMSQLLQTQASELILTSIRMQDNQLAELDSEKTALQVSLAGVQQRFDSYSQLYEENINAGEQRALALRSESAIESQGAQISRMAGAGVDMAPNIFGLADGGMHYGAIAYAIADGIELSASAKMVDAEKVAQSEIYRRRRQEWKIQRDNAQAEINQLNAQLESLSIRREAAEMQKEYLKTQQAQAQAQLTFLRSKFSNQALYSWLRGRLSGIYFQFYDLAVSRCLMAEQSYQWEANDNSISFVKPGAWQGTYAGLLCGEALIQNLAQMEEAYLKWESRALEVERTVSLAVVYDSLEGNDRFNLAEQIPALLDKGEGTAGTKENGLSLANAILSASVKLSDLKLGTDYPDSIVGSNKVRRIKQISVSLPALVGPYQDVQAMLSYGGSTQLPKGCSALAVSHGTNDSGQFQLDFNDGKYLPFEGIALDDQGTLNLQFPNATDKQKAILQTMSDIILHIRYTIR

58 kDa W-14 Photorhabdus metalloprotease
cleavage of TcbA followed by SDS-PAGE densitometry [1]: the amount of peptides TcbAii and TcbAiii increased about 3-fold while the amount of TcbA peptide decreased proportionally

38 kDa W-14 Photorhabdus metalloprotease
TcbA (% of total protein) after 38 kDa protease treatment (control 58) (% of total protein) [1]: 18 | cleavage of TcbA followed by SDS-PAGE densitometry [1]: the amount of peptides TcbAii and TcbAiii increased about 3-fold while the amount of TcbA peptide decreased proportionally

B1: TcdAii (other)
chain: LIGYNNQFSGRASQYVAPGTVSSMFSPAAYLTELYREARNLHASDSVYYLDTRRPDLKSMALSQQNMDIELSTLSLSNELLLESIKTESKLENYTKVMEMLSTFRPSGATPYHDAYENVREVIQLQDPGLEQLNASPAIAGLMHQASLLGINASISPELFNILTEEITEGNAEELYKKNFGNIEPASLAMPEYLKRYYNLSDEELSQFIGKASNFGQQEYSNNQLITPVVNSSDGTVKVYRITREYTTNAYQMDVELFPFGGENYRLDYKFKNFYNASYLSIKLNDKRELVRTEGAPQVNIEYSANITLNTADISQPFEIGLTRVLPSGSWAYAAAKFTVEEYNQYSFLLKLNKAIRLSRATELSPTILEGIVRSVNLQLDINTDVLGKVFLTKYYMQRYAIHAETALILCNAPISQRSYDNQPSQFDRLFNTPLLNGQYFSTGDEEIDLNSGSTGDWRKTILKRAFNIDDVSLFRLLKITDHDNKDGKIKNNLKNLSNLYIGKLLADIHQLTIDELDLLLIAVGEGKTNLSAISDKQLATLIRKLNTITSWLHTQKWSVFQLFIMTSTSYNKTLTPEIKNLLDTVYHGLQGFDKDKADLLHVMAPYIAATLQLSSENVAHSVLLWADKLQPGDGAMTAEKFWDWLNTKYTPGSSEAVETQEHIVQYCQALAQLEMVYHSTGINENAFRLFVTKPEMFGAATGAAPAHDALSLIMLTRFADWVNALGEKASSVLAAFEANSLTAEQLADAMNLDANLLLQASIQAQNHQHLPPVTPENAFSCWTSINTILQWVNVAQQLNVAPQGVSALVGLDYIQSMKETPTYAQWENAAGVLTAGLNSQQANTLHAFLDESRSAALSTYYIRQVAKAAAAIKSRDDLYQYLLIDNQVSAAIKTTRIAEAIASIQLYVNRALENVEENANSGVISRQFFIDWDKYNKRYSTWAGVSQLVYYPENYIDPTMRIGQTKMMDALLQSVSQSQLNADTVEDAFMSYLTSFEQVANLKVISAYHDNINNDQGLTYFIGLSETDAGEYYWRSVDHSKFNDGKFAANAWSEWHKIDCPINPYKSTIRPVIYKSRLYLLWLEQKEITKQTGNSKDGYQTETDYRYELKLAHIRYDGTWNTPITFDVNKKISELKLEKNRAPGLYCAGYQGEDTLLVMFYNQQDTLDSYKNASMQGLYIFADMASKDMTPEQSNVYRDNSYQQFDTNNVRRVNNRYAEDYEIPSSVSSRKDYGWGDYYLSMVYNGDIPTINYKAASSDLKIYISPKLRIIHNGYEGQKRNQCNLMNKYGKLGDKFIVYTSLGVNPNNSSNKLMFYPVYQYSGNTSGLNQGRLLFHRDTTYPSKVEAWIPGAKRSLTNQNAAIGDDYATDSLNKPDDLKQYIFMTDSKGTATDVSGPVEINTAISPAKVQIIVKAGGKEQTFTADKDVSIQPSPSFDEMNYQFNALEIDGSGLNFINNSASIDVTFTAFAEDGRKLGYESFSIPVTLKVSTDNALTLHHNENGAQYMQWQSYRTRLNTLFARQLVARATTGIDTILSMETQNIQEPQLGKGFYATFVIPPYNLSTHGDERWFKLYIKHVVDNNSHIIYSGQLTDTNINITLFIPLDDVPLNQDYHAKVYMTFKKSPSDGTWWGPHFVRDDKGIVTINPKSILTHFESVNVLNNISSEPMDFSGANSLYFWELFYYTPMLVAQRLLHEQNFDEANRWLKYVWSPSGYIVHGQIQNYQWNVRPLLEDTSWNSDPLDSVDPDAVAQHDPMHYKVSTFMRTLDLLIARGDHAYRQLERDTLNEAKMWYMQALHLLGDKPYLPLSTTWSDPRLDRAADITTQNAHDSAIVALRQNIPTPAPLS
notes: Processed peptide of TcdA; also called A1
binding result [2]: binds

B2: TcbAii (other)
chain: FIQGYSDLFGNRADNYAAPGSVASMFSPAAYLTELYREAKNLHDSSSIYYLDKRRPDLASLMLSQKNMDEEISTLALSNELCLAGIETKTGKSQDEVMDMLSTYRLSGETPYHHAYETVREIVHERDPGFRHLSQAPIVAAKLDPVTLLGISSHISPELYNLLIEEIPEKDEAALDTLYKTNFGDITTAQLMSPSYLARYYGVSPEDIAYVTTSLSHVGYSSDILVIPLVDGVGKMEVVRVTRTPSDNYTSQTNYIELYPQGGDNYLIKYNLSNSFGLDDFYLQYKDGSADWTEIAHNPYPDMVINQKYESQATIKRSDSDNILSIGLQRWHSGSYNFAAANFKIDQYSPKAFLLKMNKAIRLLKATGLSFATLERIVDSVNSTKSITVEVLNKVYRVKFYIDRYGISEETAAILANINISQQAVGNQLSQFEQLFNHPPLNGIRYEISEDNSKHLPNPDLNLKPDSTGDDQRKAVLKRAFQVNASELYQMLLITDRKEDGVIKNNLENLSDLYLVSLLAQIHNLTIAELNILLVICGYGDTNIYQITDDNLAKIVETLLWITQWLKTQKWTVTDLFLMTTATYSTTLTPEISNLTATLSSTLHGKESLIGEDLKRAMAPCFTSALHLTSQEVAYDLLLWIDQIQPAQITVDGFWEEVQTTPTSLKVITFAQVLAQLSLIYRRIGLSETELSLIVTQSSLLVAGKSILDHGLLTLMALEGFHTWVNGLGQHASLILAALKDGALTVTDVAQAMNKEESLLQMAANQVEKDLTKLTSWTQIDAILQWLQMSSALAVSPLDLAGMMALKYGIDHNYAAWQAAAAALMADHANQAQKKLDETFSKALCNYYINAVVDSAAGVRDRNGLYTYLLIDNQVSADVITSRIAEAIAGIQLYVNRALNRDEGQLASDVSTRQFFTDWERYNKRYSTWAGVSELVYYPENYVDPTQRIGQTKMMDALLQSINQSQLNADTVEDAFKTYLTSFEQVANLKVISAYHDNVNVDQGLTYFIGIDQAAPGTYYWRSVDHSKCENGKFAANAWGEWNKITCAVNPWKNIIRPVVYMSRLYLLWLEQQSKKSDDGKTTIYQYNLKLAHIRYDGSWNTPFTFDVTEKVKNYTSSTDAAESLGLYCTGYQGEDTLLVMFYSMQSSYSSYTDNNAPVTGLYIFADMSSDNMTNAQATNYWNNSYPQFDTVMADPDSDNKKVITRRVNNRYAEDYEIPSSVTSNSNYSWGDHSLTMLYGGSVPNITFESAAEDLRLSTNMALSIIHNGYAGTRRIQCNLMKQYASLGDKFIIYDSSFDDANRFNLVPLFKFGKDENSDDSICIYNENPSSEDKKWYFSSKDDNKTADYNGGTQCIDAGTSNKDFYYNLQEIEVISVTGGYWSSYKISNPININTGIDSAKVKVTVKAGGDDQIFTADNSTYVPQQPAPSFEEMIYQFNNLTIDCKNLNFIDNQAHIEIDFTATAQDGRFLGAETFIIPVTKKVLGTENVIALYSENNGVQYMQIGAYRTRLNTLFAQQLVSRANRGIDAVLSMETQNIQEPQLGAGTYVQLVLDKYDESIHGTNKSFAIEYVDIFKENDSFVIYQGELSETSQTVVKVFLSYFIEATGNKNHLWVRAKYQKETTDKILFDRTDEKDPHGWFLSDDHKTFSGLSSAQALKNDSEPMDFSGANALYFWELFYYTPMMMAHRLLQEQNFDAANHWFRYVWSPSGYIVDGKIAIYHWNVRPLEEDTSWNAQQLDSTDPDAVAQDDPMHYKVATFMATLDLLMARGDAAYRQLERDTLAEAKMWYTQALNLLGDEPQVMLSTTWANPTLGNAASKTTQQVRQQVLTQLRLNSRVKTPL
notes: Processed peptide of TcbA; also called B1; 201 kDa peptide
binding result [3]: binds
